Test results reported in patent US20040058406A1.

How the values were obtained:
[1] = molecular target: phosphorylated product of Flourescein-QSPKKG-CONH2 (after overnight incubation with ATP and CDK2); test: fluorescence polarization in a cuvette, 50 mM TAPS pH 9.0, large excess of poly-D-lysine; about 38 mP without polylysine
[2] = molecular target: Flourescein-QSPKKG-CONH2 (neutrally charged phosphorylatable CDK2 substrate); test: fluorescence polarization in a cuvette, 50 mM TAPS pH 9.0, poly-D-lysine added in aliquots; about 38 mP without polylysine
[3] = molecular target: phosphorylated product of Flourescein-QSPKKG-CONH2 (after overnight incubation with ATP and CDK2); test: as above

In the case of poly-D-Lysine, the fluorescence polarization [1] is reported as 100 mP, the fluorescence polarization [2] is reported as 42 mP and the fluorescence polarization [3] is reported as 72 mP.
